Patent US20150004190A1 (INSTITUT NATIONAL DE LA SANTE ET DE LA RECHERCHE MEDICALE …, published 2015)

Tests used:
Assay in all cases: cell-based or functional assay
[1] = target: T1, HIV-1 R5 tropic QH0692.42 envelope (on pseudovirus) (HIV-1 QH0692.42)
[2] = target: HIV-1 JR-CSF envelope (on virions) (HIV-1 JR-CSF (clade B, R5 tropic), UniProt P20871 32-848)
[3] = target: T1, HIV-1 R5 tropic QH0692.42 envelope (on …); remark: listed apart in the source

Binder	IC50 times lower than that of 2F5 IgG1, TZM-bl assay [1] [fold]	IC90 times lower than that of 2F5 IgG1, TZM-bl assay [1] [fold]	IC50 times lower than 2F5 IgG1, CEM-CCR5+ neutralization [2] [fold]	IC99 times lower than 2F5 IgG1, CEM-CCR5+ neutralization [2] [fold]	IC50%, neutralization of envelope pseudotyped HIV-1 in TZM-bl assay (luciferase) [3] [nM]
2F5 IgA2 (antibody, V domains shown) VH: RITLKESGPPLVKPTQTLTLTCSFSGFSLSDFGVGVGWIRQPPGKALEWLAIIYSDDDKRYSPSLNTRLTITKDTSKNQVVLVMTRVSPVDTATYFCAHRRGPTTLFGVPIARGPVNAMDVWGQGITVTI VL: ALQLTQSPSSLSASVGDRITITCRASQGVTSALAWYRQKPGSPPQLLIYDASSLESGVPSRFSGSGSGTEFTLTISTLRPEDFATYYCQQLHFYPHTFGGGTRVDVR	8.33	23.8	33	20	0.024
2F5 IgG1 (antibody, V domains shown) VH: RITLKESGPPLVKPTQTLTLTCSFSGFSLSDFGVGVGWIRQPPGKALEWLAIIYSDDDKRYSPSLNTRLTITKDTSKNQVVLVMTRVSPVDTATYFCAHRRGPTTLFGVPIARGPVNAMDVWGQGITVTI VL: ALQLTQSPSSLSASVGDRITITCRASQGVTSALAWYRQKPGSPPQLLIYDASSLESGVPSRFSGSGSGTEFTLTISTLRPEDFATYYCQQLHFYPHTFGGGTRVDVR	–	–	–	–	0.2
